Laboratory results taken from the RNAGym collection of RNA variant scans (doi:10.1073/pnas.2313332121).
Fewer inactive variants are shown than the library holds.

B1: TPR 5TU (parent)
chain: GGAUCUUCUCGAUCUAACAAAAAAGACAAAUCUGCCACAAAGCUUGAGAGCAUCUUCGGAUGCAGAGGCGGCAGCCUUCGGUGGCGCGAUAGCGCCAACGUUCUCAACUAUGACACGCAAAACGCGUGCUCCGUUGAAUGGAGUUUAUCAUG

Variants of: B1
Assay: polymerase ribozyme fitness, log enrichment relative to wild type (log ratio); higher = more active; in vitro selection for triplet polymerase activity
Outline: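 Input and output libraries were sequenced on Illumina after a single in vitro selection round, run in triplicate on PCR-built, transcribed mutant libraries of each subunit of a heterodimeric triplet polymerase ribozyme. Selection annealed libraries to a biotinylated primer, the partner subunit and triplets, incubated them frozen at −7 °C, then gel-excised extended constructs for streptavidin-bead capture and RT-PCR. Genotypes with ≥10 input reads and ≥1 read per output were kept. Fitness is the logarithm, taken in base 2, of genotype enrichment divided by wild-type enrichment, using inverse-variance-weighted replicate averages.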

Variant | polymerase ribozyme fitness (log ratio)
U56G A60C G81A G94U A106G | -3.84
A12G C54A C99U | -1.32
G34A A66U C75U A137G | ≤ -4.2
U7C G48U G84A G117C | ≤ -4.2
G11C U53A C72G C79A U82A U90G A106C | ≤ -4.2
C105U G140A | -2.92
A21G G83C U90C U146A A150C | ≤ -4.2
C5U A17G A49G U53G C85A A122C G141C | ≤ -4.2
G59U C87G C95U U101G C149G | ≤ -4.2
U55A C72A U139C | ≤ -4.2
C38U G117U | 0.325
G50A G133C | -3.28
U7G C57U G59C G88A C93A A115C | ≤ -4.2
U61C G67A G68C C79U A98G | ≤ -4.2
A16G C35A | -3.53
A52C G88A | -3.57
A52G G84A G94U G143A | ≤ -4.2
C85U A150G | -1.76
C72A A73U C85G A138C U148C | ≤ -4.2
G42C U101G G136U | ≤ -4.2
G48A A52G U55G G70C C96A | ≤ -4.2
A40C U134G A142G U145A | -3.46
A3C A17G C69G C116G A122G | -1.99
G92U U101G C131U | 0.547

Variant | polymerase ribozyme fitness (log ratio)
A40U G80A C87A U127G A147C | ≤ -4.2
C72U C76A | -1.91
G58U G83C | -0.165
A47U U77C | -4.09
C114U A137C | -3.52
C57A G62A G86A A113G A120U U127C G136A A142C | ≤ -4.2
C18G C63G G68U G71A U78G C85G G100A G141U | ≤ -4.2
G84U G117U A121G | -1.75
A20U C87U | -2.07
A17G U31C C35G G86A A121U | -4.19
C18A C27A A40U C87U C118U | -4.17
G65A A113G | -3.91
C85U A150U G152A | -0.481
A12U U31G A60G G83C | -1.56
U31A C96U C99A | -1.23
G59C U109G | -0.84
C96A U151G | ≤ -4.2
U61G G92C C95U C105U A106C U109C A138G | ≤ -4.2
U56A G58U C63A A115U C118U | -1.35
C32U C96G | -1.58
A16U G71A A73G C93U A113C C118A G140A | ≤ -4.2
C5A A28U | -3.92
A52G G86A C93A G143A | ≤ -4.2
A73U C75A G92A | ≤ -4.2

Variant | polymerase ribozyme fitness (log ratio)
A19C G86A | -0.455
A26G A41C G94A A115C | -3.45
A73U C85A A147C | -2.75
C14U G74C A107G | ≤ -4.2
C85G U130G | ≤ -4.2
A30U U55G C63U A110U G126U | -4.07
A28G C32U G50A C85A | ≤ -4.2
C57A G59C A60G | 0.42
C85A G126U | -0.409
G83U A110U | -4.17
A17G A24U A37C A41U G84A U101C C105A U111G C118U | ≤ -4.2
C10G A29U G34U C38A C87G G88A A122U G136C | ≤ -4.2
C18U U44A G46U A64G U77A A110C G140C U148A | ≤ -4.2
A26G C27U A47G C54A U56G G86A | ≤ -4.2
G42A U56A G67U G94A | ≤ -4.2
A17C U44G U61G | ≤ -4.2
U4C U7C A17U A41C G68C U78A C99A C103G | ≤ -4.2
A22U G58C C87U U135C | -2.68
A28U A29G A40G C85G U90G U134G | ≤ -4.2
A60C G71C C93G G140A U151C | ≤ -4.2
G11C A23U G50C C54G C57U A89G C116A G124C U139A | ≤ -4.2
C51U G86C A113G C114U A121G U151G | ≤ -4.2
G46U G58U A89U U102G C118G C129A G152U | ≤ -4.2
A24C A40U G94A C116A | ≤ -4.2

Variant | polymerase ribozyme fitness (log ratio)
G88U A115C A120G | -3.89
A40U C95U G124C G133U | ≤ -4.2
C54U C57U G100C | ≤ -4.2
C63U C69A G80A C85U G94C C99A | -3.32
C72A C93G C95G | ≤ -4.2
C125U U145C | -0.634
C18U A23U A26U A30U C87U C96G C108U G136A | ≤ -4.2
C10A C54G A73U A120U | ≤ -4.2
C36U C103G | -3.78
C5G C10G G92A C123U A138C G143A | ≤ -4.2
U7C G25U U31C G62C C75U G117U A122G | ≤ -4.2
A12G A41C A66G C79U G86C C103A C105A A107G | ≤ -4.2
C85G U144A | -2.27
C118G | -1.01
C75U G92C U109A U146G | -3.93
C35U C51U A52C C76G C93G A115U | ≤ -4.2
C93G A98U C114A | -3.85
C85U A98G A113U U135C | -3.59
G48A C57A | 0.284
G48A G84C G100C | ≤ -4.2
G68A C87G G128U | ≤ -4.2
C27A C32U G46A G86U C105A | ≤ -4.2
C79G U82A C87U C103A | ≤ -4.2
U53C | -0.375

Variant | polymerase ribozyme fitness (log ratio)
C38G G74C C87U | ≤ -4.2
A37U A40C G68C G86U C95U G136A A137C | ≤ -4.2
C35U U55A U56A G92A A110U U135A G152C | ≤ -4.2
U55C U61A U82A | -2.36
C14G A52G G141C | -3.34
A73U A97G U130G | ≤ -4.2
A40U A60G | 0.828
G50A G88U U127C | ≤ -4.2
U77G G84C U148G | ≤ -4.2
C54A G94U C105U | -2.47
U15G A47C | -0.922
A19G C51U A52C A60U G65A G84U C85A C87U A98C A138G | ≤ -4.2
G81A A91G | -2.82
C76U C79A C93U C116A C118A | ≤ -4.2
A12U C57G U78C C93U U127A | ≤ -4.2
A3U G59C | -0.00695
A17G A19U | 0.00969
C18G A52C C69G C75G G94A C95U A113U | ≤ -4.2
G92A C105U G141C | -3.39
C57G A115U U145A | -1.54
U31A C93G C95U C96A A113G | ≤ -4.2
A49C A137C | ≤ -4.2
A22C G86C | -2.83
A23G U56A A97G A115G | -3.42

Variant | polymerase ribozyme fitness (log ratio)
U7A A29G G67A C69U G80C C103G U104C C105U G136A G140U | ≤ -4.2
G11U C38U G58C C96U A98G | -1.45
C87U C131U | 1.46
A97U U104G | -0.956
U31G U61A A66G U90C U101C | ≤ -4.2
U9G G59C G92C A107G A115G | ≤ -4.2
C54U G71A A97U C105U A106C | ≤ -4.2
C114U A122G | -1.87
A16U U31G A37G G83A C96A A106C | ≤ -4.2
C8U A52G | -3.63
A12C U31A A47G C79A | ≤ -4.2
C5A C57U G59C C96G U101G | -0.41
A17G G59U A97C C99G | -2.61
C85A A137C | -4.13
A40U C57A G58C C79G | -3.81
A66U G94A G100U U148G | ≤ -4.2
A16U C43U C87U U104G A107G C118A | ≤ -4.2
U55A C85A C125A | -1.75
A52G C57U C75G A91U C95G C123A | -4.05
C10A A91U U101G | -4.05
A30G C76A C95A | ≤ -4.2
U53A A73C | -3.99
C27G A52C U53A A64G C69A U78A C79A C87G G94C C95A A142C | ≤ -4.2
U53G G59U C125U G141C | -3.86

Variant | polymerase ribozyme fitness (log ratio)
A91U C96U C103A U109C | ≤ -4.2
A64G A91C A115G U145C | -3.96
A24U C54A G58A G84A A120G G126U | -1.19
C27U A49G | -2.49
C93U C123U U127C U135C | ≤ -4.2
A66G C85U G86U | ≤ -4.2
A24U A52G C79G G94A A107G | ≤ -4.2
C27U A28U U53G C93A | ≤ -4.2
U13C C54U C103U | -1.54
C27U G50C C87A C105G | ≤ -4.2
G46A G50A | -0.957
A3U U7C A52C C95U C99U | ≤ -4.2
A26U U53A | -1.58
U56G A66C G81A C87U G117A | ≤ -4.2
A22C G48U A60G | 0.164
C85U C118U A142U | -1.02
G84A G140U | -2.64
G86C U151G | ≤ -4.2
A60C C99G U101G | ≤ -4.2
C43U A89U G94U C105G C132A U151C | ≤ -4.2
A39G C96U | -2.18
U102G U127C | -4.17
U7A | -2.18
